Assay results: patent US10836794B2, “Group of peptides for treating female sexual dysfunction” (“IVIX” Ltd., priority 2016, dated 2020)
Non-standard residues stand in square brackets, D forms with d. No end group written: not given here. Hyp = O=C(O)[C@@H]1C[C@@H](O)CN1

Tests used:
[1] = Stability of liquid pharmaceutical forms (peptide 0.2 %, benzalkonium chloride 0.01 %, water) during storage; single and total impurities; format: physicochemical
From the text: Investigations of the Stability of Pharmaceutical Forms Containing Peptides Having the Property of Stimulating the Genital and Sexual Functions
This experiment investigated the stability of compositions containing peptides according to the invention. The results of the investigations are illustrated by the example of several peptides according to the invention containing hydroxyproline, in particular Thr-Lys-Hyp […], Thr-Lys-Hyp-Arg-Hyp (SEQ ID NO: 13), Thr-Lys-Hyp-Arg-Hyp-Phe and Thr-Lys-Hyp-Arg-Hyp-Gly-Hyp (SEQ ID NO: 14).
The peptides described in RU2507212 were also obtained, in particular Thr-Lys-Pro, Thr-Lys-Pro-Arg-Pro (SEQ ID NO: 6), Thr-Lys-Pro-Arg-Pro-Phe (SEQ ID NO: 7) and Thr-Lys-Pro-Arg-Pro-Gly-Pro (SEQ ID NO: 1).
From the compounds obtained, a liquid pharmaceutical form (a solution) was prepared, including the peptide and the preservative benzalkonium chloride with the following ratio of components: 0.2 and 0.01 mass %, respectively, water the rest. Samples were placed in storage at two temperature regimes, namely, +4° C. and +25° C. Investigation of the stability of the peptides was carried out after 1, 3, 6, 12, and 24 months of storage. In the investigation of the samples for stability, the quantity of single impurities and the total quantity of impurities were evaluated, testifying to the degradation of the peptides. The pharmaceutical requirements of the company for impurities are: any single impurity, not more than 1.5%; total content of impurities, not more than 3.0%. If the content of impurities exceeded the above indicated values, the pharmaceutical form was deemed to have failed the test for stability.

female rats = test: Efficacy in vivo on preclinical model (Lordoz test): proceptive behavior of ovarioectomized, hormonally stimulated females; conditions: 100 mcg/rat, progesterone 0.5 mg/rat
Experimental: Investigation of the Efficacy of the Peptides of the Invention as a Means of Stimulating the Genital and Sexual Functions
In order to confirm the efficacy as a means of stimulating the genital and sexual functions, peptides according to the invention were synthesized, in particular the tripeptide Thr-Lys-Hyp, the pentapeptide Thr-Lys-Hyp-Arg-Hyp (SEQ ID NO: 12), and the hexapeptide Thr-Lys-Hyp-Arg-Hyp-Phe (SEQ ID NO: 13), and tests were performed as to the efficacy in vivo on the relevant preclinical model (Lordoz test). Furthermore, the efficacy of the group of peptides Thr-Lys-Pro, Thr-Lys-Pro-Arg-Pro (SEQ ID NO: 6), and Thr-Lys-Pro-Arg-Pro-Phe (SEQ ID NO: 7) was also investigated.
The efficacy of the aforementioned groups of peptides was investigated in a dose of 100 mcg/rat with respect to the sexual behavior of female rats. The sexual behavior was registered over the course of 0-16 days in ovarioectomized, hormonally stimulated females in the case of direct contact with sexually active males and in the case when no such contact was possible. […] The results testify to an increase in sexual motivation under the action of the peptides Thr-Lys-Hyp, Thr-Lys-Hyp-Arg-Hyp (SEQ ID NO: 12), and Thr-Lys-Hyp-Arg-Hyp-Phe (SEQ ID NO: 13).

[2] = stored for 1 month at +4° C., solution 0.2 mass % peptide, 0.01 mass % benzalkonium chloride
[3] = stored for 1 month at +25° C., solution 0.2 mass % peptide, 0.01 mass % benzalkonium chloride
[4] = stored for 12 months at +25° C.
[5] = stored for 24 months at +25° C.

Substance	Single impurities [1, 2] [%]	Total impurities [1, 2] [%]	Single impurities [1, 3] [%]	Total impurities [1, 3] [%]	Single impurities ([1]; stored for 3 months at +4° C.) [%]	Total impurities ([1]; stored for 3 months at +4° C.) [%]	Single impurities ([1]; stored for 3 months at +25° C.) [%]	Total impurities ([1]; stored for 3 months at +25° C.) [%]	Single impurities ([1]; stored for 6 months at +4° C.) [%]	Total impurities ([1]; stored for 6 months at +4° C.) [%]	Single impurities ([1]; stored for 6 months at +25° C.) [%]	Total impurities ([1]; stored for 6 months at +25° C.) [%]	Single impurities ([1]; stored for 12 months at +4° C.) [%]	Total impurities ([1]; stored for 12 months at +4° C.) [%]	Single impurities [1, 4] [%]	Total impurities [1, 4] [%]	Single impurities ([1]; stored for 24 months at +4° C.) [%]	Total impurities ([1]; stored for 24 months at +4° C.) [%]	Single impurities [1, 5] [%]	Total impurities [1, 5] [%]	further results
Thr-Lys-Hyp-Arg-Hyp-Phe (TK[Hyp]R[Hyp]F) [hexapeptide of the invention containing hydroxyproline]	0.067	0.15	0.032	0.09	0.068	0.15	0.033	0.09	0.08	0.2	0.09	0.6	0.1	0.3	0.4	0.8	0.9	1.9	1.3	2.7	Number of proceptive behavior acts (female rats; day 0 of giving the drug): 14 ± 4; Number of proceptive behavior acts (female rats; day 5 of giving the drug): 24 ± 4; Number of proceptive behavior acts (female rats; day 11 of giving the drug): 23 ± 4; Number of proceptive behavior acts (female rats; day 16 of giving the drug): 24 ± 4
Thr-Lys-Hyp-Arg-Hyp-Gly-Hyp (TK[Hyp]R[Hyp]G[Hyp]) [peptide according to the invention containing hydroxyproline]	0.049	0.12	0.069	0.14	0.05	0.12	0.07	0.5	0.06	0.14	0.09	0.9	0.09	0.3	0.3	1.1	0.1	1.1	1.2	2.6	–
Thr-Lys-Pro [reference compound]	0.051	0.13	0.06	0.1	0.053	0.135	0.13	0.25	0.3	0.9	1.7	3.1	0.9	1.7	–	–	1.2	2.2	–	–	Number of proceptive behavior acts (female rats; day 0 of giving the drug): 14 ± 4; Number of proceptive behavior acts (female rats; day 5 of giving the drug): 15 ± 4; Number of proceptive behavior acts (female rats; day 11 of giving the drug): 20 ± 4; Number of proceptive behavior acts (female rats; day 16 of giving the drug): 28 ± 4
Thr-Lys-Hyp-Arg-Hyp (TK[Hyp]R[Hyp]) [pentapeptide of the invention containing hydroxyproline]	0.03	0.09	0.046	0.14	0.03	0.09	0.047	0.15	0.04	0.1	0.1	0.7	0.07	0.2	0.2	0.9	0.1	0.7	0.9	1.2	Number of proceptive behavior acts (female rats; day 0 of giving the drug): 13 ± 4; Number of proceptive behavior acts (female rats; day 5 of giving the drug): 38 ± 4; Number of proceptive behavior acts (female rats; day 11 of giving the drug): 36 ± 4; Number of proceptive behavior acts (female rats; day 16 of giving the drug): 36 ± 6
